# Literature values as cited in publication PMC7225939.
# Where two headings read alike, the source gives them in different places.
# Legend:
# PCNA (Homo sapiens) = PCNA (Homo sapiens) (UniProt P12004); assay: ITC
# pol η (Homo sapiens) = assay: SPR
# pol ι (Homo sapiens) = assay: SPR
# RecQ5 (Homo sapiens) = assay: NMR
# ZRANB3 (Homo sapiens) [1] = assay: ITC
# Target sequence in this assay (Q5FWF4 1058-1079): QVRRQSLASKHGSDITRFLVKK
# DNMT1 (Homo sapiens) = assay: ITC
# p68 (Homo sapiens) = assay: ITC
# FEN1 (Homo sapiens) = assay: ITC
# UHRF2 (Homo sapiens) = assay: ITC
# DVC1 (Homo sapiens) = assay: ITC
# p15PAF (Homo sapiens) = assay: ITC
# Chain of p15PAF (Homo sapiens) (Q15004 50-77): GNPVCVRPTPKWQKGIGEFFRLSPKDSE
# ZRANB3 (Homo sapiens) [2] = assay: ITC; remark: listed apart in the source
# Target sequence in this assay (Q5FWF4 511-532): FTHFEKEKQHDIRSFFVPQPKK
# p12 (Homo sapiens) = assay: ITC
# p21 (Homo sapiens) = assay: ITC
# Chain of p21 (Homo sapiens) (P38936 139-160): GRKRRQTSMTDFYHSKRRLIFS
# PARG (Homo sapiens) = assay: ITC
# [3] = biological target: p15 (PAF15) (Homo sapiens) (UniProt Q15004); assay: ITC
# Chain of p15 (PAF15) (Homo sapiens) (Q15004 whole entry): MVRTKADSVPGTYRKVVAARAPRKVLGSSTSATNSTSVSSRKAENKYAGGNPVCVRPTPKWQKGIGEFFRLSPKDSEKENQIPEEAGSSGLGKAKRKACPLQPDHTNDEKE
# TRAIP (Homo sapiens) = assay: ITC
# Chain of TRAIP (Homo sapiens) (Q9BWF2 447-469): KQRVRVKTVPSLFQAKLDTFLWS
# Cdt1 (Homo sapiens) = assay: FP
# Cdt2 (Homo sapiens) = assay: FP
# Chain of PCNA (Homo sapiens) (P12004 whole entry): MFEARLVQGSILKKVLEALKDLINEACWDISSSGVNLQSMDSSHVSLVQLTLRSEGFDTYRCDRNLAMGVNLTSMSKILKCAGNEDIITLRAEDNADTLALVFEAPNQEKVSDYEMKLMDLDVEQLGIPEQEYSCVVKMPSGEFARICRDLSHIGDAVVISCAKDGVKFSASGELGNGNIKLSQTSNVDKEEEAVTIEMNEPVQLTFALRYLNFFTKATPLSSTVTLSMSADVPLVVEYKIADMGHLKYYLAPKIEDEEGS
# Chain of PCNA (P12004 whole entry): as above
# Chain of DNMT1 (Homo sapiens) (P26358 161-180): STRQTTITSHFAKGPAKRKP
# Chain of p15PAF (from UniProt Q15004) (Q15004 whole entry): as the sequence (Q15004 whole entry) above
# Chain of RecQ5 (Homo sapiens) (O94762 952-980): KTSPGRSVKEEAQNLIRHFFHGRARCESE
# Chain of pol η (Homo sapiens) (Q9Y253 other isoform, or with tags, fused parts or gaps): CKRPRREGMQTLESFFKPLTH
substance,measurement,setting,value
p15PAF,Kd,PCNA (Homo sapiens),5.56 µM
p15PAF (from UniProt Q15004),Kd,PCNA (Homo sapiens),1.1 µM
p21,Kd,PCNA (Homo sapiens),0.08 µM
p68 (DNA polymerase delta subunit),Kd,PCNA (Homo sapiens),16 µM
ZRANB3,Kd,PCNA (Homo sapiens),4.8 µM
PCNA (from UniProt P12004),Kd,pol η (Homo sapiens),0.4 µM
same,Kd,pol ι (Homo sapiens),0.39 µM
same,Kd,RecQ5 (Homo sapiens),210 µM
same,Kd,ZRANB3 (Homo sapiens) [1],9.24 µM
same,Kd,DNMT1 (Homo sapiens),1 µM
same,Kd,p68 (Homo sapiens),16 µM
same,Kd,FEN1 (Homo sapiens),59.9 µM
same,Kd,UHRF2 (Homo sapiens),25.7 µM
same,Kd,DVC1 (Homo sapiens),15.6 µM
same,Kd,p15PAF (Homo sapiens),5.56 µM
same,Kd,ZRANB3 (Homo sapiens) [2],4.8 µM
same,Kd,p12 (Homo sapiens),38 µM
same,Kd,p21 (Homo sapiens),0.08 µM
same,Kd,PARG (Homo sapiens),3.3 µM
same,Kd,[3],1.1 µM
same,Kd,TRAIP (Homo sapiens),30.7 µM
same,Kd,Cdt1 (Homo sapiens),7.2 µM
same,Kd,Cdt2 (Homo sapiens),0.057 µM
FEN1,Kd,PCNA (Homo sapiens),59.9 µM
